Target: truncated polypeptides of the in vitro translation of the DNA ligase III cDNA
Experiment: pull-down: XRCC1-His incubated with [35S]methionine-labeled in vitro translation product, captured on NTA-agarose beads, eluted with 200 mM imidazole

percent of translation product recovered with XRCC1-His: < 90%
Substance: Histidine-tagged recombinant XRCC1 protein (from UniProt P18887 1-633)

From patent US20010041350A1
